# Data published in patent US20220096653A1, “CONJUGATE COMPRISING LIGAND AND CEACAM5 ANTIBODY FAB FRAGMENT” (ASTELLAS PHARMA INC., priority 2019, published 2022).
# Legend:
# [1] = biological target: human cancer-specific MUC1 peptide; assay: ELISA binding activity of anti-human MUC1 antibody Fab^5 fragment conjugates (Example 6-1); details: each conjugate run in duplicate; Table 52; read-out: EC50
# Protocol: (§1) Each anti-human MUC1 antibody Fab^5 fragment conjugate prepared by the method of Example 5 was subjected to ELISA to evaluate the binding activity thereof to human cancer-specific MUC1. In the present test, 20×PBS/Tween 20 Buffer (Thermo Fisher Scientific Inc., 28352) diluted 20-fold with distilled water was used as a wash liquid. In addition, for bovine serum albumin (BSA) used in the present test, 30% Bovine Serum Albumin solution (Sigma-Aldrich, Inc., A9576-50ML) was added in an appropriate proportion for use. A human cancer-specific MUC1 peptide (PTL 1) at 0.5 μmol/L was added to a Nunc MaxiSorp White 384 plate (Nunc, 460372) at 30 μL per well, and the plate was incubated overnight at 4° C. for immobilization. The MUC1 peptide was removed by reverse centrifugation, and then blocking was carried out by adding a PBS/Tween 20 buffer containing 5.0% BSA. Thereafter, the blocking solution was removed by reverse centrifugation, a solution of each anti-human MUC1 antibody Fab^5 fragment conjugate (Ex-No. 104, 108, or 112) described above at about 10000 ng/mL was diluted in 14 steps by 3-fold dilution using a PBS/Tween 20 buffer containing 1.0% BSA, and 30 μL was added per well and incubated at room temperature for 60 minutes. The plate was washed 3 times with a PBS/Tween 20 buffer, and Horseradish Peroxidase-labeled goat anti-human IgK antibody (Southern Biotechnology Associates, Inc.) diluted 10000-fold using a PBS/Tween 20 buffer containing 5.0% BSA was added at 30 μL per well and incubated at room temperature for 30 minutes. The plate was washed 3 times with a PBS/Tween 20 buffer, and ECL Prime Western Blotting DETECTION Reagent (GE Healthcare, RPN2232) as a substrate was added at 30 μL per well. The substrate was incubated at room temperature for 15 minutes, and then a signal value thereof was measured using an Envision counter (PerkinElmer, Inc.).
# (§2) The test for each antibody was carried out in duplicate, and the EC50 value was calculated using a 4-parameter logistic curve model.
# [2] = biological target: human cancer-specific MUC1 peptide (Homo sapiens, UniProt P15941); assay: ELISA binding activity of anti-human MUC1 antibody Fab^5 fragment conjugates (Example 6-2); details: each conjugate run in duplicate; Table 54; read-out: EC50
# human cancer-specific MUC1 peptide (Homo sapiens, UniProt P15941), sequence (P15941 136-155): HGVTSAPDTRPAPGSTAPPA
# Protocol: as §1, with “101-113)” for “104, 108, or 112)”
# as §2
# [3] = design: species or system mice (BALB/c or BALB/c nu/nu); details: mouse, in vivo
# Protocol: A Gd-labeled conjugate of the conjugate containing a peptide linker produced in one of the above Examples was administered from the tail vein of mice (BALB/c or BALB/c nu/nu) so that the protein mass was 0.02 mg (100 μL) per animal. After about 24 hours, the mice were sacrificed and the kidneys were removed, and the amount of Gd in the kidneys was measured using ICP-MS. The present test was carried out in 3 cases in each group, the mean value of the 3 cases was calculated, and the amount of Gd contained per kidney after administration was shown as a percentage (% of dose/tissue) of the total amount of Gd administered.
# Based on the amount of Gd contained in the kidneys of the control conjugate, the proportion of decrease in the amount of Gd contained in the kidneys of each of the conjugates having a peptide linker was determined.
# [4] = design: species or system mice (BALB/c nu/nu); details: mouse, in vivo
# Protocol: (§3) A Gd-labeled conjugate of the conjugate containing a peptide linker produced in one of the above Examples was administered from the tail vein of the tumor-bearing mice so that the protein mass was 0.02 mg (100 μL) per animal. As the tumor-bearing mice used in the present Example, mice (BALB/c nu/nu) that were in a tumor-bearing state brought about by transplanting human breast cancer cell line MDA-MB-468 (ATCC(registered trademark); HTB-132) at 5.0×10^6 cells/mouse subcutaneously on the back before administration of the sample were used. 24 hours after administration of the sample, the mice were sacrificed, the kidneys and the tumor were removed, and the amounts of Gd in the kidneys and in the tumor were measured using ICP-MS. The present test was carried out in 3 cases in each group, and the mean value of the 3 cases was calculated. The amount of Gd contained per kidney after administration was shown as a percentage of the amount of Gd administered (% of dose/tissue), and the amount of Gd contained per g of tumor tissue was shown as a percentage of the total amount of Gd administered (% of dose/g).
# [5] = tested on: human breast cancer cell line MDA-MB-468; assay: Amount of tumor accumulation of Gd-labeled Fab^5 conjugates, MDA-MB-468 tumor-bearing mice (Example 8); details: control conjugate Ex-No. 108, mean for 2 runs, 24 hours
# Protocol: as §3
molecule,measurement,setting,value
"Ex-No 108 (conjugate, non-natural residues) heavy: QVQLVQSGAEVKKPGASVKVSCKASGYTFTNYGLSWVRQAPGQGLEWMGENHPGSGIIYHNEKFRGRVTLTADRSTSTAYMELSSLRSEDTAVYYCARSSGTRGFDYWGQGTLVTVSSASTKGPSVFPLAPSSKSTSGGTAALGCLVKDYFPEPVTVSWNSGALTSGVHTFPAVLQSSGLYSLSSVVTVPSSSLGTQTYICNVNHKPSNTKVDKKVEPKSCD light: DVVMTQTPLSLSVTPGQPASISCRSSQSIVHSNGNTYLEWYLQKPGQSPQLLIYRVSNRFSGVPDRFSGSGSGTDFTLKISRVEAEDVGVYYCFQGSHGPWTFGQGTKLEIKRTVAAPSVFIFPPSDEQLKSGTASVVCLLNNFYPREAKVQWKVDNALQSGNSQESVTEQDSKDSTYSLSSTLTLSKADYEKHKVYACEVTHQGLSSPVTKSFNRGEC",EC50,[1],0.07 nM
same,EC50,[2],0.07 nM
same,Renal residual amount (normal mice) Mean,[3],33.00 % of dose/tissue
same,Renal residual amount Mean,[4],34.67 % of dose/tissue
same,Amount of tumor accumulation Mean,[5],0.92 % of dose/g
